According to patent EP4628095A1 (Xiamen University, dated 2025):

Assays:
[1] = biological target: T1, P2-3A-RBD (mammalian cell expression system); assay: SPR (Biacore 8K), HEV-p239 coupled to CM5 chip (Fig. 10B)
T1 construct: also called VHH-RBD

[2] = biological target: T2, P2-3E-RBD (mammalian cell expression system); assay: as above
T2 construct: also called VHH-RBD

[3] = biological target: T3, P1-5B-RBD (mammalian cell expression system); assay: as above
T3 construct: also called VHH-RBD

[4] = biological target: T4, P2-5C-RBD (mammalian cell expression system); assay: as above
T4 construct: also called VHH-RBD

[5] = biological target: T5, P2-2C-RBD (mammalian cell expression system); assay: as above
T5 construct: also called VHH-RBD

[6] = biological target: T6, P1-5B-RBD (insect cell expression system); assay: SPR (Biacore 8K), HEV-p239 coupled to CM5 chip (Fig. 10A)
T6 construct: also called VHH-RBD; P1-5B-RBD fusion protein

[7] = biological target: T7, P2-3E-RBD (insect cell expression system); assay: as above
T7 construct: also called VHH-RBD

[8] = biological target: T8, P2-3D-RBD (insect cell expression system); assay: as above
T8 construct: also called VHH-RBD

[9] = biological target: T9, P2-3A-RBD (insect cell expression system); assay: as above
T9 construct: also called VHH-RBD

Measured: binding result

B1: HEV-p239 protein (other)
chain: IALTLFNLADTLLGGLPTELISSAGGQLFYSRPVVSANGEPTVKLYTSVENAQQDKGIAIPHDIDLGESRVVIQDYDNQHEQDRPTPSPAPSRPFSVLRANDVLWLSLTAAEYDQSTYGSSTGPVYVSDSVTLVNVATGAQAVARSLDWTKVTLDGRPLSTIQQYSKTFFVLPLRGKLSFWEAGTTKAGYPYNYNTTASDQLLVENAAGHRVAISTYTTSLGAGPVSISAVAVLAPHSV
notes: also called HEV-p239 particles; HEV particles
binds: all assays above
